Data taken from patent US20230399394A1 (SUNSHINE GUOJIAN PHARMACEUTICAL SHANGHAI, published 2023).

Assays:
[1] = biological target: T1, IL-33 mutant protein K70A (human, UniProt O95760 112-270); assay: ELISA as Example 9; row K70A
T1 construct: Prokaryotic expression
T1 chain: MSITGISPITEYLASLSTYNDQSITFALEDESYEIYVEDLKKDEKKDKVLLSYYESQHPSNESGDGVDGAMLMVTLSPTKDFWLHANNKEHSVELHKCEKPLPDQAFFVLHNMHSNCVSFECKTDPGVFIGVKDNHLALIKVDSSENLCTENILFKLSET
Experimental: (§1) SA protein was diluted to 2 μg/mL to coat ELISA plate at 100 μL/well overnight at 4° C. The plate was washed with PBST (PBS containing 0.05% Tween20) for 3 times, and blocked with 2% BSA prepared in PBS at 200 μL/well, at room temperature for 2 h. After the plate was washed twice with PBST, IL-33-his-biotin protein was diluted to 1 μg/mL with 1% BSA prepared in PBST, and was added to ELISA plate at 100 μL/well. The plate was incubated at room temperature for 1 h, and each monoclonal antibody was diluted with 1% BSA prepared in PBST in a 3-fold gradient. The highest concentration of antibody was 10 μg/mL, and the antibody was diluted for 12 gradients. Each diluted monoclonal antibody was added to ELISA wells with 100 μL/well, and the plate was incubated at room temperature for 1 h. Each sample was added to duplicate wells in parallel. The plate was washed with PBST for 3 times, and HRP-anti human IgG Fc secondary antibody prepared with PBST was diluted at an appropriate ratio, and was added to ELISA wells at 100 μL/well. […] Each reaction solution was shaken uniformly and OD450 nm was read on a microplate reader. The data was analyzed and EC₅₀ was calculated.
(§2) Subsequently, according to the experimental method of Example 9, the affinity of the above mutant proteins to 874F7-Hu1 was determined, and IL-33 proteins (WT-1, WT-2, WT-3, and WT-4) without any mutation were set as controls.

[2] = biological target: T2, IL-33 mutant protein S60A (human, UniProt O95760 112-270); assay: ELISA as Example 9; row S60A
T2 construct: Prokaryotic expression; also called 560A
T2 chain: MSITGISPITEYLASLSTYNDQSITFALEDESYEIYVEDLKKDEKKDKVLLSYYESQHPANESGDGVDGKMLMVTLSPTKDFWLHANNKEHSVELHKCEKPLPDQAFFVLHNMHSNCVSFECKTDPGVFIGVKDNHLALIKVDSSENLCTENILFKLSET
Experimental: as §1, §2

[3] = biological target: T3, IL-33 mutant protein E55A (human, UniProt O95760 112-270); assay: ELISA as Example 9; row E55A against WT-2
T3 construct: Prokaryotic expression
T3 chain: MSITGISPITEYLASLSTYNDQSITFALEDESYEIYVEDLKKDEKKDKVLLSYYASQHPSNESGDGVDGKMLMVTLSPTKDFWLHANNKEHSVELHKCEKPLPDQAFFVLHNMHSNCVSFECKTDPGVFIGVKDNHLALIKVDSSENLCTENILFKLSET
Experimental: as §1, §2

[4] = biological target: T4, IL-33 mutant protein H58A (human, UniProt O95760 112-270); assay: ELISA as Example 9; row H58A against WT-1
T4 construct: Prokaryotic expression
T4 chain: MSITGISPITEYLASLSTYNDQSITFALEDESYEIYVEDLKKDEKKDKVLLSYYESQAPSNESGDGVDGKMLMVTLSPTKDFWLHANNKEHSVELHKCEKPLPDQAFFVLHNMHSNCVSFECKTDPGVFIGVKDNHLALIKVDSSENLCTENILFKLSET
Experimental: as §1, §2

[5] = biological target: T5, IL-33 mutant protein L50A (human, UniProt O95760 112-270); assay: ELISA as Example 9; row L50A against WT-4
T5 construct: Prokaryotic expression
T5 chain: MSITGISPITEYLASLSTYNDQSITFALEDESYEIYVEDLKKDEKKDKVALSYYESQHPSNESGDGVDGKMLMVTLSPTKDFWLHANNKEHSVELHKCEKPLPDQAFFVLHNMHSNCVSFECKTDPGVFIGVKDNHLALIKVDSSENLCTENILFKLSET
Experimental: as §1, §2

[6] = biological target: T6, IL-33 mutant protein S52A (human, UniProt O95760 112-270); assay: ELISA as Example 9; row S52A against WT-2
T6 construct: Prokaryotic expression
T6 chain: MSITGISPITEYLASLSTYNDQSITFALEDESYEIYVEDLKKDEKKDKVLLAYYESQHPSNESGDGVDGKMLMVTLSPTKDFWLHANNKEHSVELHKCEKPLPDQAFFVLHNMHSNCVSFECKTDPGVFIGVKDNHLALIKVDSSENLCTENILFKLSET
Experimental: as §1, §2

Human IL-33-his = biological target: T7, Human IL-33-his (human, UniProt O95760 112-270, biotinylated with EZ-Link NHS-Biotin where used as IL-33-his-biotin); assay: SPR Biacore 8K, antibody captured on Protein A/G chip, IL-33-his as analyte, 1:1 model
T7 construct: Used plain (SPR, cell assays) and biotinylated (ELISA); also called IL-33-his-biotin
T7 sequence: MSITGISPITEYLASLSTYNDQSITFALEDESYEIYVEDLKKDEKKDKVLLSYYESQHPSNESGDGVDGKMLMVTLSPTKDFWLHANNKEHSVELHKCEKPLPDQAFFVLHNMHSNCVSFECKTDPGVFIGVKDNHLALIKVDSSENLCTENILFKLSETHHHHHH
Experimental: A chip with covalently coupled Protein A/G (purchased from GE Healthcare, catalog number BR-1005-30) was used to capture each antibody to be tested, and the relevant operating parameters were as follows: The antibody concentration was […], the contact time was 75 s, the flow rate was […], and the regeneration contact time was 30 s. The IL-33-his antigen was diluted with HBS-EP pH7.4 buffer solution (purchased from GE Healthcare, catalog number BR-1006-69). The maximum concentration was 50 nM, and diluted to 0.39 nM by two-fold dilution. Duplicate wells and 0 concentration point well were set, and 6M guanidine hydrochloride solution was used as the regeneration buffer. The sample was injected on Biacore 8K according to the following parameters, the binding time was 180 s, the dissociation time was 900 s, the flow rate was 30 μL/min, and the regeneration contact time was 30 s. After running, Biacore 8K Evaluation Software was used to analyze the data according to the “1:1 binding kinetics model”, and the binding kinetics parameters of each antibody to IL-33 were obtained.

- EC50 [1]: 0.11 nM
- EC50 [2]: 5.31 nM
- Affinity decline ratio [3]: 2.5 fold
- Affinity decline ratio [4]: 1.9 fold
- Affinity decline ratio [5]: 28.5 fold
- Affinity decline ratio [6]: 14.6 fold
- Kd (Human IL-33-his): 2.82 nM
- koff (Human IL-33-his): 0.00057 s⁻¹
- kon (Human IL-33-his): 202000 M⁻¹ s⁻¹
B1: 874F7-Hu1 (antibody, human IgG4 S228P, kappa)
heavy: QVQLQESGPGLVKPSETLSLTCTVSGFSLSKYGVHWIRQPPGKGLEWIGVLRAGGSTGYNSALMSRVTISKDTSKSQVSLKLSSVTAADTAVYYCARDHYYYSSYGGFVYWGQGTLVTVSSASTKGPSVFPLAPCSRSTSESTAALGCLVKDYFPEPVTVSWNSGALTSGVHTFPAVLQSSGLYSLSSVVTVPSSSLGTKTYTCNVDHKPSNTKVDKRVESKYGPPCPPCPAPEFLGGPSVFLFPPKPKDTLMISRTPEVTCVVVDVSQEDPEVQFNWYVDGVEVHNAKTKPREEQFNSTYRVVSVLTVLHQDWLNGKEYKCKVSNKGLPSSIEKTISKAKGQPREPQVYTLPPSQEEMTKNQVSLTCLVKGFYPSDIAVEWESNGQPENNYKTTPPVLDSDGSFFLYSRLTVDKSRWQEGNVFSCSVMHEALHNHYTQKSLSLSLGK
light: DIQMTQSPSSVSASVGDRVTITCLASQTIGAWLAWYQQKPGKSPKLLIYAATRLADGVPSRFSGSGSGTDFTLTISSLQPEDFATYYCQQLDSSPYTFGQGTKVEIKRTVAAPSVFIFPPSDEQLKSGTASVVCLLNNFYPREAKVQWKVDNALQSGNSQESVTEQDSKDSTYSLSSTLTLSKADYEKHKVYACEVTHQGLSSPVTKSFNRGEC
notes: also called 874F7-Hul; humanized antibody 874F7-Hu1
